# ± gives the uncertainty stated by the source.
# B1: Storkhead-box protein 2, residues 64 to 141; numbered along this chain, Q9P2F5 (parent)
# chain: SPISQSQFIPLGEILCLAISAMNSARKPVTQEALMEHLTTCFPGVPTPSQEILRHTLNTLVRERKIYPTPDGYFIVTP
# Variants of: B1
# Assay: abundance fitness (aPCA) (normalised: wild type 0, dead -1); higher = more abundant; growth selection in yeast, the domain comes from the species named
# Conditions: Homo sapiens
row,Variant,abundance fitness
1,SPISQSQFIPLGEILCLAISAMNSARKPVTQEALMEHLTTCFPGVPTPSQEILRHTLNTLDRERKIYPTPDGYFIVTP [V61D],-0.186 ± 0.1
2,SPISQSQFIPLGEILCLAISAMNSARKPVTQEALMEHLTTCFPGVPTPSQEILRHTLNTLERERKIYPTPDGYFIVTP [V61E],-0.028 ± 0.062
3,SPISQSQFIPLGEILCLAISAMNSARKPVTQEALMEHLTTCFPGVPTPSQEILRHTLNTLFRERKIYPTPDGYFIVTP [V61F],-0.166 ± 0.1
4,SPISQSQFIPLGEILCLAISAMNSARKPVTQEALMEHLTTCFPGVPTPSQEILRHTLNTLHRERKIYPTPDGYFIVTP [V61H],-0.122 ± 0.097
5,SPISQSQFIPLGEILCLAISAMNSARKPVTQEALMEHLTTCFPGVPTPSQEILRHTLNTLIRERKIYPTPDGYFIVTP [V61I],-0.014 ± 0.1
6,SPISQSQFIPLGEILCLAISAMNSARKPVTQEALMEHLTTCFPGVPTPSQEILRHTLNTLKRERKIYPTPDGYFIVTP [V61K],-0.146 ± 0.077
7,SPISQSQFIPLGEILCLAISAMNSARKPVTQEALMEHLTTCFPGVPTPSQEILRHTLNTLLRERKIYPTPDGYFIVTP [V61L],-0.05 ± 0.046
8,SPISQSQFIPLGEILCLAISAMNSARKPVTQEALMEHLTTCFPGVPTPSQEILRHTLNTLMRERKIYPTPDGYFIVTP [V61M],0.052 ± 0.067
9,SPISQSQFIPLGEILCLAISAMNSARKPVTQEALMEHLTTCFPGVPTPSQEILRHTLNTLNRERKIYPTPDGYFIVTP [V61N],-0.432 ± 0.28
10,SPISQSQFIPLGEILCLAISAMNSARKPVTQEALMEHLTTCFPGVPTPSQEILRHTLNTLPRERKIYPTPDGYFIVTP [V61P],-1.05 ± 0.14
11,SPISQSQFIPLGEILCLAISAMNSARKPVTQEALMEHLTTCFPGVPTPSQEILRHTLNTLQRERKIYPTPDGYFIVTP [V61Q],-0.013 ± 0.095
12,SPISQSQFIPLGEILCLAISAMNSARKPVTQEALMEHLTTCFPGVPTPSQEILRHTLNTLSRERKIYPTPDGYFIVTP [V61S],-0.008 ± 0.043
13,SPISQSQFIPLGEILCLAISAMNSARKPVTQEALMEHLTTCFPGVPTPSQEILRHTLNTLTRERKIYPTPDGYFIVTP [V61T],0.019 ± 0.071
14,SPISQSQFIPLGEILCLAISAMNSARKPVTQEALMEHLTTCFPGVPTPSQEILRHTLNTLYRERKIYPTPDGYFIVTP [V61Y],-0.208 ± 0.13
15,SPISQSQFIPLGEILCLAISAMNSARKPVTQEALMEHLTTCFPGVPTPSQEILRHTLNTLVAERKIYPTPDGYFIVTP [R62A],0.049 ± 0.049
16,SPISQSQFIPLGEILCLAISAMNSARKPVTQEALMEHLTTCFPGVPTPSQEILRHTLNTLVCERKIYPTPDGYFIVTP [R62C],-0.047 ± 0.066
17,SPISQSQFIPLGEILCLAISAMNSARKPVTQEALMEHLTTCFPGVPTPSQEILRHTLNTLVDERKIYPTPDGYFIVTP [R62D],-0.05 ± 0.11
18,SPISQSQFIPLGEILCLAISAMNSARKPVTQEALMEHLTTCFPGVPTPSQEILRHTLNTLVEERKIYPTPDGYFIVTP [R62E],0.017 ± 0.075

row,Variant,abundance fitness
1,SPISQSQFIPLGEILCLAISAMNSARKPVTQEALMEHLTTCFPGVPTPSQEILRHTLNTLVGERKIYPTPDGYFIVTP [R62G],-0.008 ± 0.038
2,SPISQSQFIPLGEILCLAISAMNSARKPVTQEALMEHLTTCFPGVPTPSQEILRHTLNTLVHERKIYPTPDGYFIVTP [R62H],-0.051 ± 0.14
3,SPISQSQFIPLGEILCLAISAMNSARKPVTQEALMEHLTTCFPGVPTPSQEILRHTLNTLVIERKIYPTPDGYFIVTP [R62I],0.006 ± 0.07
4,SPISQSQFIPLGEILCLAISAMNSARKPVTQEALMEHLTTCFPGVPTPSQEILRHTLNTLVKERKIYPTPDGYFIVTP [R62K],-0.109 ± 0.18
5,SPISQSQFIPLGEILCLAISAMNSARKPVTQEALMEHLTTCFPGVPTPSQEILRHTLNTLVLERKIYPTPDGYFIVTP [R62L],-0.037 ± 0.034
6,SPISQSQFIPLGEILCLAISAMNSARKPVTQEALMEHLTTCFPGVPTPSQEILRHTLNTLVMERKIYPTPDGYFIVTP [R62M],0.045 ± 0.095
7,SPISQSQFIPLGEILCLAISAMNSARKPVTQEALMEHLTTCFPGVPTPSQEILRHTLNTLVPERKIYPTPDGYFIVTP [R62P],-0.944 ± 0.091
8,SPISQSQFIPLGEILCLAISAMNSARKPVTQEALMEHLTTCFPGVPTPSQEILRHTLNTLVTERKIYPTPDGYFIVTP [R62T],0.053 ± 0.051
9,SPISQSQFIPLGEILCLAISAMNSARKPVTQEALMEHLTTCFPGVPTPSQEILRHTLNTLVWERKIYPTPDGYFIVTP [R62W],-0.081 ± 0.049
10,SPISQSQFIPLGEILCLAISAMNSARKPVTQEALMEHLTTCFPGVPTPSQEILRHTLNTLVYERKIYPTPDGYFIVTP [R62Y],0.076 ± 0.21
11,SPISQSQFIPLGEILCLAISAMNSARKPVTQEALMEHLTTCFPGVPTPSQEILRHTLNTLVRARKIYPTPDGYFIVTP [E63A],-0.019 ± 0.039
12,SPISQSQFIPLGEILCLAISAMNSARKPVTQEALMEHLTTCFPGVPTPSQEILRHTLNTLVRCRKIYPTPDGYFIVTP [E63C],-0.043 ± 0.055
13,SPISQSQFIPLGEILCLAISAMNSARKPVTQEALMEHLTTCFPGVPTPSQEILRHTLNTLVRDRKIYPTPDGYFIVTP [E63D],-0.004 ± 0.089
14,SPISQSQFIPLGEILCLAISAMNSARKPVTQEALMEHLTTCFPGVPTPSQEILRHTLNTLVRGRKIYPTPDGYFIVTP [E63G],-0.054 ± 0.035
15,SPISQSQFIPLGEILCLAISAMNSARKPVTQEALMEHLTTCFPGVPTPSQEILRHTLNTLVRHRKIYPTPDGYFIVTP [E63H],-0.006 ± 0.075
16,SPISQSQFIPLGEILCLAISAMNSARKPVTQEALMEHLTTCFPGVPTPSQEILRHTLNTLVRIRKIYPTPDGYFIVTP [E63I],-0.234 ± 0.13
17,SPISQSQFIPLGEILCLAISAMNSARKPVTQEALMEHLTTCFPGVPTPSQEILRHTLNTLVRKRKIYPTPDGYFIVTP [E63K],0.011 ± 0.05

# Reference: the Human Domainome abundance scans (Beltran et al. 2025)
